{"source": "patent US10597674B2", "about": "“HPPD variants and methods of use” (BASF Agricultural Solutions Seed, US LLC, priority 2015, dated 2020)", "molecules": {"B1": {"name": "SEQ ID NO:31 (protein)", "chain": "MADLYENPMGLMGFEFIEFASPTPGTLEPIFEIMGFTKVATHRSKNVHLYRQGEINLILNNEPNSIASYFAAEHGPSVCGMAFRVKDSQKAYNRALELGAQPIHIDTGPMELNLPAIKGIGGAPLYLIDRFGEGSSIYDIDFVYLEGVERNPVGAGLKVIDHLTHNVYRGRMVYWANFYEKLFNFREARYFDIKGEYTGLTSKAMSAPDGMIRIPLNEESSKGAGQIEEFLMQFNGEGIQHVAFLTDDLVKTWDALKKIGMRFMTAPGDEYYEMLEGRLPDHGEPVDQLQARGILLDGSSVEGDKRLLLQIFSETLMGPVFFEFIQRKGDDGFGPHSFKVLFESVERDQVRRGVLTAD", "modifications": "mutant HPPD polypeptide"}, "B2": {"name": "SEQ ID NO:19 (protein)", "chain": "B1 chain with M264R, D330H, H336D", "modifications": "mutant HPPD polypeptide"}, "B3": {"name": "SEQ ID NO: 2: prior art mutant HPPD polypeptide (WO2014/043435): E335P G336W K339A A340Q (protein)", "chain": "B1 chain with G268P, E270T, H336W, S337N, K339A, V340Q, V345I", "modifications": "mutant HPPD polypeptide", "notes": "prior art mutant HPPD polypeptide (WO2014/043435): E335P G336W K339A A340Q"}}, "key": {"[1]": {"tested_on": "E. coli cells expressing an HPPD polypeptide", "assay": "Brown Color Assay on solid LB-agar, visual score of brown pigment", "assay_type": "cell-based", "parameters": "key to brown pigment formation: +++: a dark brown coloring as seen for E. coli cells expressing one of the respective mutant HPPD polypeptide without inhibitor; ++: medium brown pigmentation; +: light brown pigmentation; 0: no brown pigmentation development was detected on the LB agar plates", "protocol": "Mutant HPPD polypeptides were analyzed using a brown color assay (WO2014/043435). Bacterial cells expressing the mutant HPPD polypeptide according to the invention were assayed in 96 well format for HPPD inhibitor tolerance by spotting on solid media containing LB-agar, selection agent for the expression vector pSE420(RI)NX (WO2014/043435), 5 mM tyrosine (Sigma-Aldrich, St. Louis, USA), 42 mM succinate (Sigma-Aldrich, St. Louis, USA) and six different concentrations of the HPPD inhibitor herbicide Cmpd. 1 (0-500 μM). In the brown color assay, an overnight culture of the E. coli cells expressing one of the respective mutant HPPD polypeptides were diluted to an OD600 of 1 and 10 μl extract was spotted in triplicates on plates containing 0, 25, 50, 100, 250, or 500 μM of Cmpd. 1. Plates were covered with airpore tape and incubated at 30 degrees C. After 24 hours, the cells were kept in darkness at room temperature and after 7 days the brown pigment formation was scored visually. In the presence of an HPPD inhibitor herbicide, this pigment formation is inhibited and the color of the agar plate will not alter, unless an HPPD inhibitor herbicide tolerant HPPD polypeptide is expressed and active. […] The “++” and “+” scores a medium and light brown pigmentation, respectively, and the “0” means that no brown pigmentation development was detected on the LB agar plates."}, "[2]": {"molecular_target": "HPPD polypeptides (wild-type SEQ ID NO:1 and mutants) (Pseudomonas sp., UniProt P80064, A172V/A339V/A53E/D148E/D45N/E105D/E287Q/E300V/E334P/F143Y/G286D/G335H/H150N/H254A/H63N/I158V/I187A/I249V/I344V/K92N/L18F/N24G/N280D/N336S/P267G/S245T/S257K/S301E/T205S/T269E/V65I)", "conditions": "compared with SEQ ID NO: 24; Table 3a and 3c"}, "[3]": {"tested_on": "HPPD polypeptides (purified, wild-type SEQ ID NO:1 and mutants)", "assay": "Coupled HPPD activity assay: ki determination, competitive inhibition fit", "assay_type": "biochemical, Pseudomonas fluorescens", "conditions": "inhibitor Cmpd. 1", "protocol": "For the generation of purified HPPD polypeptide samples, cells were grown for 3 h at 37° C. in 5 ml LB medium containing 100 μg/ml ampicillin in a 50 ml shaker flask at 140 rpm. One ml of this starter culture was used as inoculum for the expression culture. […] At an OD600 of about 0.6, IPTG (Roth, Karlsruhe, Germany) was added to a concentration of 0.4 mM. After further growth for 60 min at 37° C., the temperature was reduced to 28° C. and growth continued for another 18 h at 140 rpm. Cells were harvested by centrifugation at 4° C., 3200 g for 30 min in 50 ml Falcon tubes and cell pellets were stored at −80° C. […]\nThe resulting protein samples were re-buffered into 20 mM Tris, 20% Glycerol (pH 7.8) (Sigma-Aldrich, St. Louis, USA) by use of Zeba™ Spin Desalting Columns, 7K MWCO, 10 mL (Thermo Fisher Scientific, Waltham, USA) and analysed for protein concentration and purity by Abs280 (NANODROP 8000, Thermo Fisher Scientific, Waltham, USA) and SDS-PAGE. […]\nThe mutant HPPD polypeptides represented here are examples by a way of illustration, not by a way of limitation. […] The inhibitor concentrations were adopted for the respective HPPD polypeptide/inhibitor pairs to generate dynamic data, i.e. variants with lower tolerance were analyzed in a range of lower inhibitor concentrations, and concentrations of up to 1200 μM were used for variants with maximized tolerance. […]"}, "[4]": {"molecular_target": "HPPD polypeptides (wild-type SEQ ID NO:1 and mutants) (Pseudomonas sp., UniProt P80064, A172V/A339V/A53E/D148E/D329H/D45N/E105D/E287Q/E300V/E334P/F143Y/G286D/G335D/H150N/H254A/H63N/I158V/I187A/I249V/I344V/K92N/L18F/M263R/N24G/N280D/N336S/P267G/S245T/S257K/S301E/T205S/T269E/V65I)", "sequence (P80064 other isoform, or with tags, fused parts or gaps with the stated changes)": "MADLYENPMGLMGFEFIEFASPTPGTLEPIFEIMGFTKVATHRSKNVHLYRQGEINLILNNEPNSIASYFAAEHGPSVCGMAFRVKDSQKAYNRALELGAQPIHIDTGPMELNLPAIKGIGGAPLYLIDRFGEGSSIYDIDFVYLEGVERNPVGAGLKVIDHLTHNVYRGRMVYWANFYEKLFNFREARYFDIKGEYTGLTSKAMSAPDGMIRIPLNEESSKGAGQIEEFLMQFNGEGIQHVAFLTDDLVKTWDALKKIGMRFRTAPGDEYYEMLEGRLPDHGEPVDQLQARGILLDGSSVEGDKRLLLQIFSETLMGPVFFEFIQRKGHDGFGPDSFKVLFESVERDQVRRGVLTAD", "conditions": "15 μM Cmpd. 1, high substrate concentration (Table 3a)"}, "[5]": {"tested_on": "transgenic soybean T0 events", "assay": "Greenhouse spray test of T0 soybean events, herbicide tolerance rating 0-3", "assay_type": "in vivo", "conditions": "Cmpd. 1 300 g AI/ha", "protocol": "Tolerant green shoots were transferred to rooting media or grafted. Rooted plantlets were transferred to the greenhouse after an acclimation period. Plants containing the transgene were then sprayed with HPPD inhibitor herbicides, as for example with mesotrione at a rate of 300-600 g AI/ha, or with Cmpd. […] Five to ten days after the application, the symptoms due to the application of the herbicide were evaluated and compared to the symptoms observed on wild-type plants under the same conditions.\nFor example, T0 soybean plants having a “plant expression cassette”, which includes an HPPD inhibitor tolerant HPPD polypeptide of the present invention, were tested towards the tolerance of Cmpd. 1.\nPrior greenhouse trials with the transgenic plants, soybean transformants were routinely analyzed for the expression and presence of the transgenes using the ELISA protein detection method (see detailed description under item D and H). Only plants recovering in the selection media and having a detectable HPPD transgene protein expression were used for the herbicide tolerance analysis. A DeVries Tracker Sprayer was calibrated prior to each spraying. The chemical formulation used for Cmpd. 1 was supplemented with ammonium sulfate and methylated rape seed oil. Spray tests were conducted with a concentration, which equals to 300 grams AI per hectare (300 g AI/ha). Tolerance was evaluated 5 days after spraying. […] A rating of “3” was assigned to plants showing good tolerance, i.e. less than 10% of the leaf area from the top three trifoliate leaves showing chlorosis or only very slight bleaching."}, "[6]": {"tested_on": "transgenic T1 soybean events", "assay": "Field trials of T1 soybean events, leaf damage eight days after application", "assay_type": "in vivo", "protocol": "Soybean plants expressing an HPPD inhibitor tolerant polypeptide of the present invention alone, or along with a gene conferring tolerance to glyphosate and/or a gene conferring tolerance to glufosinate or having a “plant expression cassette”, which includes only an HPPD inhibitor tolerant polypeptide of the present invention, were tested for tolerance to different HPPD inhibitor herbicide chemical classes. The transgenic plants were routinely analyzed for the expression and presence of the transgenes using the ELISA protein detection method (see detailed description under item D and H). Only plants recovering in the selection media and having a detectable HPPD transgene protein expression were regenerated, transferred to the greenhouse and used at V2-V4 growth stage for the HPPD inhibitor herbicide tolerance analysis of the T0 soybean events in the greenhouse (Example 6). The chemical formulation with HPPD inhibitor herbicides was supplemented with ammonium sulfate and methyl ester rapeseed oil. Herbicide tolerance evaluation was taken 5-21 days after spraying. The best performing independent T0 soybean events were selfed to produce T1 soybean seeds. In the field trails, the advanced T1 soybean seeds were planted and treated with either 210 g/ha of isoxaflutole or 150 g/ha of Cmpd.\nIn Table 10, the frequency of the soybean events showing a good tolerance, i.e. equal or less than 15% damage of the total leaf area are summarized"}, "[7]": {"tested_on": "transgenic soybean T0 events", "assay": "Additional greenhouse trials of T0 soybean events, leaf damage score 0-100 as percentiles", "assay_type": "in vivo", "conditions": "Cmpd. 1 300 g AI/ha, five days", "method_in_brief": "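Independent T0 events (21 to 94 per construct, single cassette insertion) expressing mutant HPPD were sprayed with HPPD inhibitor herbicide in the greenhouse. Leaf damage scored 5 days after application from 0 (no damage) to 100 (complete bleaching). Scores reported as percentile distributions (25th, median, 75th) per construct.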"}, "[8]": {"tested_on": "E. coli cells expressing an HPPD polypeptide", "assay": "Brown color bioassay in liquid culture, residual brown color formation (BCF), OD440 after 96 hours", "assay_type": "cell-based", "conditions": "Cmpd. 1 1000 μM, 96 hours", "method_in_brief": "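E. coli expressing HPPD variants were grown at 30 degrees Celsius from OD600 0.3-0.5 in LB with 5 mM HPP, with or without herbicide (e.g. Cmpd. 1, 1000 μM). After 96 hours, supernatant OD440 was measured; residual brown colour formation compares pigment with and without inhibitor.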"}, "[9]": {"conditions": "150 g/ha Cmpd. 1, stage V2-V4, eight days after application"}, "[10]": {"conditions": "210 g/ha isoxaflutole, stage V2-V4, eight days after application"}}, "note": "Changes are numbered by the printed parent chain. In names and notes the source's numbering stands.", "data": [{"molecule": "B1", "values": [{"measurement": "brown coloring compared with SEQ ID NO: 2, in words", "setting": "[1]; 25, 50, 100, 250 and 500 μM Cmpd. 1", "result": "stronger brown coloring"}, {"measurement": "residual turnover in the presence of Cmpd. 1 and MST, in words", "setting": "[2]", "result": "increase significantly"}]}, {"molecule": "B2", "values": [{"measurement": "increase of ki towards Cmpd. 1 compared to SEQ ID NO:2", "setting": "[3]", "result": "~30", "unit": "fold"}, {"measurement": "Residual activity", "setting": "[4]", "result": 68, "unit": "%"}, {"measurement": "Residual turnover", "setting": "[4]", "result": 79, "unit": "%"}]}, {"molecule": "B3", "values": [{"measurement": "brown pigment formation", "setting": "[1]; 25 μM Cmpd. 1, scored after 7 days", "result": "++"}, {"measurement": "brown pigment formation", "setting": "[1]; 50 μM Cmpd. 1, scored after 7 days", "result": "++"}, {"measurement": "brown pigment formation", "setting": "[1]; 100 μM Cmpd. 1, scored after 7 days", "result": "++"}, {"measurement": "brown pigmentation, in words", "setting": "[1]; 250 μM Cmpd. 1", "result": "only a slight brown pigmentation"}, {"measurement": "brown pigment formation", "setting": "[1]; 250 μM Cmpd. 1, scored after 7 days", "result": "+"}, {"measurement": "brown pigmentation, in words", "setting": "[1]; 500 μM Cmpd. 1", "result": "lost their brown pigmentation"}, {"measurement": "brown pigment formation", "setting": "[1]; 500 μM Cmpd. 1, scored after 7 days", "result": 0}, {"measurement": "number of events with Herbicide Tolerance Rating 0", "setting": "[5]; five days after application", "result": 5}, {"measurement": "Percentage events rated “2 & 3”", "setting": "[5]; five days, less than 50% leaf damage", "result": 83.3, "unit": "%"}, {"measurement": "number of events with Herbicide Tolerance Rating 1", "setting": "[5]; five days, rating 1 = slight tolerance, 50-95% leaf damage", "result": 10}, {"measurement": "number of events with Herbicide Tolerance Rating 2", "setting": "[5]; five days, rating 2 = moderate tolerance, 10-49% of leaf area", "result": 26}, {"measurement": "number of events with Herbicide Tolerance Rating 3", "setting": "[5]; five days, rating 3 = good tolerance, less than 10% of leaf area", "result": 49}, {"measurement": "Frequency in the population (events with ≤15% leaf damage)", "setting": "[6]; [9]", "result": 41, "unit": "%"}, {"measurement": "Independent events with ≤15% leaf damage after spray", "setting": "[6]; [9]", "result": 16}, {"measurement": "Frequency in the population (events with ≤15% leaf damage)", "setting": "[6]; [10]", "result": 26, "unit": "%"}, {"measurement": "Independent events with ≤15% leaf damage after spray", "setting": "[6]; [10]", "result": 10}, {"measurement": "leaf damage score, Interquartile range", "setting": "[7]; 75th minus 25th percentile", "result": 30.0}, {"measurement": "leaf damage score, 25th percentile", "setting": "[7]; scale 0 (no damage) to 100 (complete bleaching)", "result": 15.0}, {"measurement": "leaf damage score, 75th percentile", "setting": "[7]; scale 0-100", "result": 45.0}, {"measurement": "leaf damage score, 90th percentile", "setting": "[7]; scale 0-100", "result": 87.0}, {"measurement": "leaf damage score, Median", "setting": "[7]; scale 0-100", "result": 20.0}, {"measurement": "brown pigmentation in the presence of the HPPD inhibitor, in words", "setting": "[8]", "result": "did not produce a substantial brown pigmentation"}]}]}
